US20130011427A1 (priority 2009, published 2013)

Legend:
Assay in all cases: cell-based or functional assay
[1] = molecular target: HLA-DR2 (chimeric HLA-DRA1*0101/DRB1*1501 with I-E domains) (human; murine) (UniProt Q8BHN5)
[2] = molecular target: HLA-DR3 (HLA-DRA*0101 / HLA-DRB1*0301) (human)
[3] = molecular target: HLA-A2.1 (HHD monochain) (human; murine)
[4] = molecular target: HLA-DR4 (HLA-DRA*0101 / HLA-DRB1*0401) (human)
[5] = molecular target: HLA-B7 (chimeric HLA-B*0702 / H-2K^d heavy chain) (human; murine) (UniProt P01902)
UniProt P01902, sequence (P01902 whole entry, change not shown): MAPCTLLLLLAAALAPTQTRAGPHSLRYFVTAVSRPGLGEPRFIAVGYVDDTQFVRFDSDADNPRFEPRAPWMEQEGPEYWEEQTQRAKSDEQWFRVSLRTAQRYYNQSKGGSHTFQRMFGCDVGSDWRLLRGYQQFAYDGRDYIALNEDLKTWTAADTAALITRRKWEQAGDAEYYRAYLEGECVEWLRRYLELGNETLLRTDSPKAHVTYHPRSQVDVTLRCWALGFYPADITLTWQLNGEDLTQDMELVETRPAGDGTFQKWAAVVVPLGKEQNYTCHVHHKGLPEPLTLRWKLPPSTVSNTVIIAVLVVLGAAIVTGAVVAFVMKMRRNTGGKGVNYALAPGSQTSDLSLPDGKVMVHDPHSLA

UniProt Q8BHN5, sequence (Q8BHN5 whole entry, stated change not applied): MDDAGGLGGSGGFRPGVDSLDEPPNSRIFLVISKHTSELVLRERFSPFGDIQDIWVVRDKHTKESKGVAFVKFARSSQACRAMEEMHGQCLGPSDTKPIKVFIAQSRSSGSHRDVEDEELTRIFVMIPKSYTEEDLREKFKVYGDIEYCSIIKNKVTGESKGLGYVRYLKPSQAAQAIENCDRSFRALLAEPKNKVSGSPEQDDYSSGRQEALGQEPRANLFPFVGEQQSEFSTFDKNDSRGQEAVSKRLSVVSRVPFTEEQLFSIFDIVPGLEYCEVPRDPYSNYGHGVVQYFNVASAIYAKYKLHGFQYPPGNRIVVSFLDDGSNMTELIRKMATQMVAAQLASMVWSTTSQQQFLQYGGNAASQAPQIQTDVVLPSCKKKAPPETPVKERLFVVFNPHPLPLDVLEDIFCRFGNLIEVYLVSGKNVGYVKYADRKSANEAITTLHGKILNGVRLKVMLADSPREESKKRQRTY

Row | Substance | IFN-γ ELISpot (SFC/10^6) [1] [SFC/10^6] | IFN-γ ELISpot (SFC/10^6) [2] [SFC/10^6] | IFN-γ ELISpot (SFC/10^6) [4] [SFC/10^6] | IFN-γ ELISpot (SFC/10^6) [5] [SFC/10^6] | IFN-γ ELISpot (SFC/10^6) [3] [SFC/10^6]
1 | WNV E 398-415 peptide | 168 | 88 | – | – | –
2 | WNV E 434-451 peptide | 116 | 79 | – | – | –
3 | WNV E 442-459 peptide | 117 | 101 | – | – | 442
4 | WNV E 465-482 peptide | 490 | 330 | – | – | 310
5 | WNV E 486-501 peptide | 214 | 244 | – | – | 323
6 | WNV NS1 1-19 peptide | – | 572 | – | – | –
7 | WNV NS1 18-35 peptide | – | 52 | – | – | –
8 | WNV NS3 1-15 peptide | – | – | – | 45 | –
9 | WNV NS3 474-489 peptide | – | 83 | – | – | 92
10 | WNV NS3 480-496 peptide | – | 121 | – | – | –
11 | WNV NS3 487-501 peptide | – | 431 | – | – | 308
12 | WNV NS3 492-509 peptide | – | 216 | – | – | –
13 | WNV NS3 560-574 peptide | – | 225 | – | – | –
14 | WNV NS4b 201-218 peptide | – | 99 | 73 | – | –
15 | WNV NS5 115-132 peptide | – | 79 | – | – | –
16 | WNV NS5 153-168 peptide | 250 | – | – | 112 | 332
17 | WNV NS5 605-622 peptide | 556 | – | 240 | – | –
18 | WNV NS5 763-780 peptide | – | – | 91 | 36 | –
19 | WNV prM 121-138 peptide | 130 | – | 56 | – | –
20 | WNV prM 152-167 peptide | 269 | 90 | 117 | – | 318

Continued, in another order:

Row | IFN-γ ELISpot (SFC/10^6) [1] [SFC/10^6] | IFN-γ ELISpot (SFC/10^6) [2] [SFC/10^6] | IFN-γ ELISpot (SFC/10^6) [4] [SFC/10^6] | IFN-γ ELISpot (SFC/10^6) [5] [SFC/10^6] | Substance | IFN-γ ELISpot (SFC/10^6) [3] [SFC/10^6]
21 | – | 83 | – | – | WNV E 426-443 peptide | –
22 | – | 557 | 109 | – | WNV NS1 305-322 peptide | –
23 | 556 | 231 | – | – | WNV NS2a 168-183 peptide | –
24 | 149 | 368 | – | – | WNV NS3 37-54 peptide | –
25 | – | 63 | – | – | WNV NS3 45-59 peptide | –
26 | 51 | 145 | – | – | WNV NS3 500-517 peptide | –
27 | – | 132 | – | – | WNV NS4a 1-17 peptide | –
28 | 278 | – | 187 | – | WNV NS4a 15-31 peptide | –
29 | 57 | 67 | – | – | WNV NS4b 38-55 peptide | –
30 | – | 386 | 92 | – | WNV NS4b 63-80 peptide | –
31 | – | – | – | 50 | WNV NS5 145-162 peptide | –
32 | – | – | – | 39 | WNV NS5 828-843 peptide | –
33 | 235 | 78 | 327 | – | WNV prM 136-153 peptide | –
